Data reported in patent US20230348630A1.

B1: anti-BCMA antibody A6-3 scFv displayed on phage (scFv, part only; not given: scFv linker, phage coat fusion, V domains shown, not shown: another chain or arm of the molecule; large carriers; small tags and cut ends)
VH: QVQLVQSGAEVKKPGASVKVSCKASGYTFTNHIIHWVRQAPGQGLEWMGYINPYPGYHGYNDKFSGRATMTSDTSTSTVYMELSSLRSEDTAVYYCARDGYYRDQDVLDYWGQGTLVTVSS
VL: DIQMTQSPSSLSASVGDRVTITCKASQDISQYLNWYQQKPGKAPKLLIYYTSGLHPGVPSRFSGSGSGTDFTFTISSLEPEDIATYYCQQGYALPWTFGQGTKVEIK
B2: anti-CD3D&E antibody 7-1A12 scFv displayed on phage (scFv, part only; not given: scFv linker, part only)
scFv, part: EVQLVESGGGLVQPGRSLRLSCAASGFTFSDYTMHWVRQAPGKGLEWVSGISWNTGTIGYADSVKGRFTISRDNAKKSLYLQMNSLRAEDTALYYCAKDNSGYGHYYFGMDVWGQGTTVTVASEIVMTQSPATLSVSPGERATLSCRASQSVSRNVAWYQQKPGQAPRLLIYGASTRQTGIPARFSGSGSGTEFTLTISSLQSEDFAVYYCQSYINWPLQFGGGTKVEIK
B3: anti-CD3D&E antibody D1E9 scFv displayed on phage (scFv, part only; not given: scFv linker, phage coat fusion, V domains shown, not shown: another chain or arm of the molecule; large carriers; small tags and cut ends)
VH: EVQLVESGGGLVQPGRSLRLSCAASGFTFDDFAMHWVRQAPGKGLEWVSGITWNSGSVGYADSVKGRFTISRDNAKKSLYLQMNSLRAEDTALYYCAKDRSGYGHYYYGMDVWGQGTTVTVAS
VL: EIVMTQSPATLSVSPGERATLSCRASTSVSHNVAWYQQKPGQAPRLLIYGASTKVTGIPARFSGSGSGTEFTLTISSLQSEDFAVYYCQHYINWPLTFGGGTKVEIK

Assays:
[1] = biological target: BCMA-his protein (Cat #: BCA-H522y, ACRO) (human) (UniProt Q02223); test: phage ELISA on BCMA-his protein, detection with HRP anti-M13 antibody
Chain of BCMA-his protein (Cat #: BCA-H522y, ACRO) (human) (Q02223 1-54 limits assumed): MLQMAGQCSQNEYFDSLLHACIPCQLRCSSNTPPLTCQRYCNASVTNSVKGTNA

[2] = biological target: CD3D&E protein (Cat #: CT038-H2508H, Sino Biological) (human) (UniProt P04234); test: phage ELISA on CD3D&E protein, detection with HRP anti-M13 antibody
Chain of CD3D&E protein (Cat #: CT038-H2508H, Sino Biological) (human) (P04234 22-105, chain 1 of 2): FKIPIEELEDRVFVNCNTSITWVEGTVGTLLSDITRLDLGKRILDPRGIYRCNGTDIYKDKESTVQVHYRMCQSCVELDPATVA
Chain of CD3D&E protein (Cat #: CT038-H2508H, Sino Biological) (human) (P07766 23-126, chain 2 of 2, further chain): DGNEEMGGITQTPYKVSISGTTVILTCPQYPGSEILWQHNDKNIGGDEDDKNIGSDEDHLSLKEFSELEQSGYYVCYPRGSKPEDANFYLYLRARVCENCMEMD

Binder | EC50 (read off the curve) [1] | EC50 (read off the curve) [2]
B1 | 1 µg/mL | 
B2 |  | 4 µg/mL
B3 |  | 20 µg/mL
